Patent publication US20220098306A1 (published 2022)
Positions count from the first letter of the chain named. Like-named read-outs stand apart in the source and are kept apart here.

T1: B7H3 (antigen of the affinity statements) (human, UniProt Q5ZPR3 29-466)
T1 chain: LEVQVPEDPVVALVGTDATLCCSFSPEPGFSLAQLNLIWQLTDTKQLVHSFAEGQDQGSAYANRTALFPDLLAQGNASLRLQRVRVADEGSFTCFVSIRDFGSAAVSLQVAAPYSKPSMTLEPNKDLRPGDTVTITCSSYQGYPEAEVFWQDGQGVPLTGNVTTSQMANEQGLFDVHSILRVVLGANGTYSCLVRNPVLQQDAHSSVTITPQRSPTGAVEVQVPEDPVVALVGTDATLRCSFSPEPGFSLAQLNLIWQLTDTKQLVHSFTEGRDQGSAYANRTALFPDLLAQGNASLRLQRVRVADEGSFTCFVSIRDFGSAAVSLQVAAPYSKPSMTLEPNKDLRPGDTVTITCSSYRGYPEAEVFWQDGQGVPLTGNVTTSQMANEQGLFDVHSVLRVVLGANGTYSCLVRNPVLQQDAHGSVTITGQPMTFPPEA

T2: cynomolgus B7H3
T2 chain: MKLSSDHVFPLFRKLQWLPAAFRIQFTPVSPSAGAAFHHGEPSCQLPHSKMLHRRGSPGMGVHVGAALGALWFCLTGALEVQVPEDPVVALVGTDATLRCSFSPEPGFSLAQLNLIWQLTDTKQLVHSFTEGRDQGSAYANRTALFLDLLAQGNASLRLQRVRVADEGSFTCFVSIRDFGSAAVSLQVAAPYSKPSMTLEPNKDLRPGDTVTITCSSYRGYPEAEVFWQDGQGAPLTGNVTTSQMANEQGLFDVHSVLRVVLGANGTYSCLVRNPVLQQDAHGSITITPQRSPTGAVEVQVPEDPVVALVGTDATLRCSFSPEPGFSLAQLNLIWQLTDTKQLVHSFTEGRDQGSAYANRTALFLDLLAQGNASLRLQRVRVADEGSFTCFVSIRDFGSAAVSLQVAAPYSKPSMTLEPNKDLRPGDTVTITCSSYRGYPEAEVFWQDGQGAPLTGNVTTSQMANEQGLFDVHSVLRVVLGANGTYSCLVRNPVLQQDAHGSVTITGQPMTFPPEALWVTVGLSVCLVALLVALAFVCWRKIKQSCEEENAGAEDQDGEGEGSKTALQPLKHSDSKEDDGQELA

B1: H1.14_L1 (XENP31398) (antibody, V domains shown)
VH: EVQLLESGGGLVQPGGSLRLSCAASGFTFSSYYMSWVRQAPGKGLEWVSTISGSGDSTYYADSVKGRFTISRDNSKNTLYLQMNSLRAEDTAVYYCAKSGPGLRQVGFDYWGQGTLVTVSS
VL: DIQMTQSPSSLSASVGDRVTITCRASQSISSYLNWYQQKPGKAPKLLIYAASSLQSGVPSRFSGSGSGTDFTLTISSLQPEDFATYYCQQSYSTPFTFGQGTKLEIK
B2: 2E4A3_H1.3_1A7_L1 (antibody, V domains shown)
VH: QVQLVQSGAEVKKPGASVKVSCKASGYIFTNHYMHWVRQAPGQGLEWMGIISPSAGSTDYAQKFQGRVTMTRDTSTSTVYMELSSLRSEDTAVYYCARGGGSSPRLDYWGQGTLVTVSS
VL: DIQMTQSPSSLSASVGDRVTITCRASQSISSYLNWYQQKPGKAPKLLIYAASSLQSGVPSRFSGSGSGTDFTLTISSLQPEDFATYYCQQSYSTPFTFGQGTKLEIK
B3: 2E4A3_H1.22_L1 (antibody, V domains shown)
VH: B2 VH with H32N, A55V, S57R, D59A
VL: not shown
B4: 2E4A3_H1.22_1A7_L1 (antibody, V domains shown)
VH: B2 VH with H32N, A55V, S57R, D59A
VL: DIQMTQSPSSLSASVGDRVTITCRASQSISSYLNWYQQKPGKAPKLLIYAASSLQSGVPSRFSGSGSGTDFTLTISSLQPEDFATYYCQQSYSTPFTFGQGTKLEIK
B5: XENP35153 (bispecific antibody)
heavy: EVQLLESGGGLVQPGGSLRLSCAVSGFSLSSYGVIWVRQAPGKGLEYVSWVSSGGSTNYASSVKGRFTISRDTSKNTVYLQMNSLRAEDTAVYFCARGATNSGTDIWGPGTLVTVSSASTKGPSVFPLAPSSKSTSGGTAALGCLVKDYFPEPVTVSWNSGALTSGVHTFPAVLQSSGLYSLSSVVTVPSSSLGTQTYICNVNHKPSDTKVDKKVEPKSCDKTHTCPPCPAPPVAGPSVFLFPPKPKDTLMISRTPEVTCVVVDVKHEDPEVKFNWYVDGVEVHNAKTKPREEEYNSTYRVVSVLTVLHQDWLNGKEYKCKVSNKALPAPIEKTISKAKGQPREPQVYTLPPSREEMTKNQVSLTCDVSGFYPSDIAVEWESDGQPENNYKTTPPVLDSDGSFFLYSKLTVDKSRWEQGDVFSCSVLHEALHSHYTQKSLSLSPGK
scFv-Fc: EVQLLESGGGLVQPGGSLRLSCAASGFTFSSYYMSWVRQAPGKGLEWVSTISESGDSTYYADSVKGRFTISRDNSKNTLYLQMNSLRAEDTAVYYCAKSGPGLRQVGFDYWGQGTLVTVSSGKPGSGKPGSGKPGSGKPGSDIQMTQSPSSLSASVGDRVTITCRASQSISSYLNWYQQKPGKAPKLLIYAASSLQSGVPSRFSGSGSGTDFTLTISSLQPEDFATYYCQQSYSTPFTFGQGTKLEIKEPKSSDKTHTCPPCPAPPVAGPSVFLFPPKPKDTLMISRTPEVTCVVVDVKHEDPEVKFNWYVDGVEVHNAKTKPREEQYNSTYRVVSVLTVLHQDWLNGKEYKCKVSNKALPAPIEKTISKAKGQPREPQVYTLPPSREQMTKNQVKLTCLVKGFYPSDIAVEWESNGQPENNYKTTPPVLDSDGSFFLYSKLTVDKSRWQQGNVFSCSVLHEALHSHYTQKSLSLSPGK
light: DIVMTQSPSSLSASVGDRVTITCRASQSINSWLSWYQQKPGKPPKLLIYGASNLASGVPSRFKGSGSGTDFTLTISSLQPEDFATYYCQNNYGIIAAGATFGGGTKVEIKRTVAAPSVFIFPPSDEQLKSGTASVVCLLNNFYPREAKVQWKVDNALQSGNSQESVTEQDSKDSTYSLSSTLTLSKADYEKHKVYACEVTHQGLSSPVTKSFNRGEC
B6: XENP34398 (bispecific antibody)
heavy 1: EVQLLESGGGLVQPGGSLRLSCAASGFTFSSYYMSWVRQAPGKGLEWVSTISESGDSTYYADSVKGRFTISRDNSKNTLYLQMNSLRAEDTAVYYCAKSGPGLRQVGFDYWGQGTLVTVSSASTKGPSVFPLAPSSKSTSGGTAALGCLVKDYFPEPVTVSWNSGALTSGVHTFPAVLQSSGLYSLSSVVTVPSSSLGTQTYICNVNHKPSDTKVDKKVEPKSCDKTHTCPPCPAPPVAGPSVFLFPPKPKDTLMISRTPEVTCVVVDVKHEDPEVKFNWYVDGVEVHNAKTKPREEEYNSTYRVVSVLTVLHQDWLNGKEYKCKVSNKALPAPIEKTISKAKGQPREPQVYTLPPSREEMTKNQVSLTCDVSGFYPSDIAVEWESDGQPENNYKTTPPVLDSDGSFFLYSKLTVDKSRWEQGDVFSCSVLHEALHSHYTQKSLSLSPGK
heavy 2: QVQLVQSGAEVKKPGASVKVSCKASGYIFTNNYMHWVRQAPGQGLEWMGIISPSVGRTAYAQKFQGRVTMTRDTSTSTVYMELSSLRSEDTAVYYCARGGGSSPRLDYWGQGTLVTVSSASTKGPSVFPLAPSSKSTSGGTAALGCLVKDYFPEPVTVSWNSGALTSGVHTFPAVLQSSGLYSLSSVVTVPSSSLGTQTYICNVNHKPSNTKVDKKVEPKSCGKPGSGKPGSQVQLVQSGAEVKKPGASVKVSCKASGYIFTNNYMHWVRQAPGQGLEWMGIISPSVGRTAYAQKFQGRVTMTRDTSTSTVYMELSSLRSEDTAVYYCARGGGSSPRLDYWGQGTLVTVSSASTKGPSVFPLAPSSKSTSGGTAALGCLVKDYFPEPVTVSWNSGALTSGVHTFPAVLQSSGLYSLSSVVTVPSSSLGTQTYICNVNHKPSNTKVDKKVEPKSCDKTHTCPPCPAPPVAGPSVFLFPPKPKDTLMISRTPEVTCVVVDVKHEDPEVKFNWYVDGVEVHNAKTKPREEQYNSTYRVVSVLTVLHQDWLNGKEYKCKVSNKALPAPIEKTISKAKGQPREPQVYTLPPSREQMTKNQVKLTCLVKGFYPSDIAVEWESNGQPENNYKTTPPVLDSDGSFFLYSKLTVDKSRWQQGNVFSCSVLHEALHSHYTQKSLSLSPGK
light: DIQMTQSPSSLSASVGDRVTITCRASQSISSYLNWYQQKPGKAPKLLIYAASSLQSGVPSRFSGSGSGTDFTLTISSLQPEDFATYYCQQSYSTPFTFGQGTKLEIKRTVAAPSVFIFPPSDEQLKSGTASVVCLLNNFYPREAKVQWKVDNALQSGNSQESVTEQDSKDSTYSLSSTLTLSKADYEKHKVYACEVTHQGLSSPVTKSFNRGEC
B7: 6A1_H1L1 (antibody, V domains shown)
VH: EVQLLESGGGLVQPGGSLRLSCAASGFTFSNYYMAWVRQAPGKGLEWVSSISTGGGSTYYRDSVKGRFTISRDNSKSTLYLQMNSLRAEDTAVYYCTTDLSAIAATPFAYWGQGTLVTVSS
VL: DIQMTQSPSSLSASVGDRVTITCRASQNIYTSLAWYQQKPGKAPKLLIYNAHSLQTGIPSRFSGSGSGADFTLTISSLQPEDFATYFCQQYYSGLTFGSGTKLEIK
B8: XENP34732 (bispecific antibody)
heavy: EVQLLESGGGLVQPGGSLRLSCAASGFTFSNYYMAWVRQAPGKGLEWVSSISTGGGSTYYRDSVKGRFTISRDNSKSTLYLQMNSLRAEDTAVYYCTTDLSAIAATPFAYWGQGTLVTVSSASTKGPSVFPLAPSSKSTSGGTAALGCLVKDYFPEPVTVSWNSGALTSGVHTFPAVLQSSGLYSLSSVVTVPSSSLGTQTYICNVNHKPSDTKVDKKVEPKSCDKTHTCPPCPAPPVAGPSVFLFPPKPKDTLMISRTPEVTCVVVDVKHEDPEVKFNWYVDGVEVHNAKTKPREEEYNSTYRVVSVLTVLHQDWLNGKEYKCKVSNKALPAPIEKTISKAKGQPREPQVYTLPPSREEMTKNQVSLTCDVSGFYPSDIAVEWESDGQPENNYKTTPPVLDSDGSFFLYSKLTVDKSRWEQGDVFSCSVLHEALHSHYTQKSLSLSPGK
scFv-Fc: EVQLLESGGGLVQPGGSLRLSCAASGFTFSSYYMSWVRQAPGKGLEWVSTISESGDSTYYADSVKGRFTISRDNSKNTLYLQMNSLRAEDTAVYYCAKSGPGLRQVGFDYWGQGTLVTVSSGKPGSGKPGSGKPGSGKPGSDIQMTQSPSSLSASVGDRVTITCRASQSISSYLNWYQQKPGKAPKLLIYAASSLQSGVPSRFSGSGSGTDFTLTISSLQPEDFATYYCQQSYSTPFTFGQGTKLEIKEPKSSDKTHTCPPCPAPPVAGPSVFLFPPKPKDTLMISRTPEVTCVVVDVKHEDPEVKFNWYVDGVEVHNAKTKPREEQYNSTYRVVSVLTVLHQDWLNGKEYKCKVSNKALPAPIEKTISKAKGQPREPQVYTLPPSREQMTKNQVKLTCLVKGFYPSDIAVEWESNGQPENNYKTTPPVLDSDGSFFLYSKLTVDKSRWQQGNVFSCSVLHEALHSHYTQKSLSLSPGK
light: DIQMTQSPSSLSASVGDRVTITCRASQNIYTSLAWYQQKPGKAPKLLIYNAHSLQTGIPSRFSGSGSGADFTLTISSLQPEDFATYFCQQYYSGLTFGSGTKLEIKRTVAAPSVFIFPPSDEQLKSGTASVVCLLNNFYPREAKVQWKVDNALQSGNSQESVTEQDSKDSTYSLSSTLTLSKADYEKHKVYACEVTHQGLSSPVTKSFNRGEC
B9: 3C4_H1_L1.1 (antibody, V domains shown)
VH: EVQLLESGGGLVQPGGSLRLSCAVSGFSLSSYGVIWVRQAPGKGLEYVSWVSSGGSTNYASSVKGRFTISRDTSKNTVYLQMNSLRAEDTAVYFCARGATNSGTDIWGPGTLVTVSS
VL: DIVMTQSPSSLSASVGDRVTITCRASQSINSWLSWYQQKPGKPPKLLIYGASNLASGVPSRFKGSGSGTDFTLTISSLQPEDFATYYCQNNYGIIAAGATFGGGTKVEIK
B10: 38E2_H2_L1.1 (antibody, V domains shown)
VH: EVQLVESGGGLVKPGGSLRLSCAASGFSFSVGYYMCWVRQAPGKGLEWVSCIYVGSGSSGSTYYASVKGRFTISSDTAKTSVYLQMNSLRAEDTAVYFCARTAGSDWRLDLWGQGTLVTVSS
VL: DIVMTQSPSSLSASVGDRVTITCRASQSIANELSWYQQKPGKPPKLLIYRASTLTSGVPSRFKGSGSGTDFTLTISSLQPEDFATYYCQSTYNGRAIGFGGGTKVEIK

What was measured:
[1] = molecular target: T3, CD28 (antigen of the affinity determinations) (human, UniProt P10747 19-152); test: -; Fab, 2+1 CLC
[2] = molecular target: T1, B7H3 (antigen of the affinity …)
[3] = molecular target: T2, cynomolgus B7H3
[4] = molecular target: T3, CD28 (antigen of the affinity …)
[5] = molecular target: T1, B7H3 (antigen of the affinity …); test: -; monovalent KD

Row | Binder | Kd [1] [nM] | Kd [2] [nM] | Kd [3] [nM] | Kd [4] [nM] | Kd [5] [nM]
1 | B1 | 62.8 | – | – | – | –
2 | B2 | – | 12 | 7 | – | –
3 | B3 | – | 6.1 | 5.3 | – | –
4 | B4 | – | 7.6 | 4.3 | – | –
5 | B5 | – | – | – | 360 | 0.5
6 | B6 | – | – | – | 63 | 7.6
7 | B7 | – | 8.1 | 4.2 | – | –
8 | B8 | – | – | – | 370 | 8.1
9 | B9 | – | 29.7 | 27.2 | – | –
10 | B10 | – | 0.5 | 1.4 | – | –
